US20150329597A1

Key:
[1] = molecular target: RSV F monomer (uncleaved RSV F Delp23 Furdel; Delp23 Furdel Truncated HIS construct) (respiratory syncytial virus); assay: SPR (BIAcore), D25 Fab immobilised on CM5 chip, F monomer as analyte, 1:1 fit
[2] = molecular target: RSV F monomer (uncleaved RSV F Delp23 Furdel; Delp23 Furdel Truncated HIS construct) (respiratory syncytial virus); assay: analytical HPLC-SEC of F monomer with 1:1 molar D25 Fab; monomer alone ~11.5 min
[3] = molecular target: RSV F monomer (uncleaved RSV F Delp23 Furdel; Delp23 Furdel Truncated HIS construct) (respiratory syncytial virus); assay: preparatory SEC of F monomer with D25 Fab at 1:1 molar ratio; monomer alone ~1.4 mls
[4] = molecular target: RSV F trimerized-monomer: RSV Monomer (Delp23 Furdel) + HRA peptide (respiratory syncytial virus); assay: preparatory SEC of the trimerized F fraction with about 10-fold excess D25 Fab; trimerized monomer alone ~1.2 mls

For “D25 Fab harboring a HIS-tag and Strep-tag”, the Kd [1] was 0.053 nM, the koff [1] was 9.9e-06 s⁻¹ and the kon [1] was 190000 M⁻¹ s⁻¹. For the same substance, the Retention Time Wyatt SEC WTC-030S5 (mixture) [2] was 10.3 min, the Retention Volume Micro-Superdex 200 (mixture) [3] was 1.3 mls and the Retention Volume Micro-Superdex 200 (mixture) [4] was 1.1 mls.
